Laboratory results taken from patent US9057062B2, “Enzyme produced by Arthrobacter globiformis” (MATSUTANI CHEMICAL INDUSTRY CO., LTD., priority 2011, dated 2015).

Key:
Format in all cases: biochemical, Arthrobacter globiformis M30
[1] = target: ketose 3-epimerase (D-PE) (Arthrobacter globiformis, UniProt A0A1L7NQ96)
[2] = substrate: O=C(CO)[C@@H](O)[C@H](O)[C@H](O)CO; experiment: Km and Vmax of the present enzyme; details: other: 30° C., in the presence of Mg2+ ions
Procedure: (§1) The enzyme reaction was performed at 30° C. for 30 min, and the amount of the enzyme that produced 1 micromole of D-fructose in 1 min under these conditions was taken as one unit. After the reaction, the reaction mixture was put in a boiling liquid for 3 min to quench the reaction. After deionization, the product D-fructose was measured by HPLC analysis. Protein measurement was performed by using the Bradford method, using 5 μL of the enzyme liquid added to a Bradford solution (250 μl) and evenly stirred therein.
(§2) The Km and Vmax of the present enzyme for D-psicose and D-fructose were measured. The measurement was made by measuring enzyme activity at 30° C. in the presence of Mg^2+ ions.

[3] = substrate: O=C(CO)[C@H](O)[C@H](O)[C@H](O)CO; experiment: Km and Vmax of the present enzyme; details: other: 30° C., in the presence of Mg2+ ions
Procedure: as §1, §2

Molecule: [Co+2] [Co^2+, divalent cobalt ions]
- Effect of metal ion on enzyme activity [1]: activatable

Molecule: [Mn+2] [Mn^2+, divalent manganese ions]
- Effect of metal ion on enzyme activity [1]: activatable

B1: ketose 3-epimerase, purified enzyme (Arthrobacter globiformis) (protein)
chain: MKIGCHGLVWTGHFDAEGIRYSVQKTREAGFDLVEFPLMDPFSFDVQTAKSALAEHGLAASASLGLSDATDVSSEDPAVVKAGEELLNRAVDVLAELGATDFCGVIYSAMKKYMEPATAAGLANSKAAVGRVADRASDLGINVSLEVVNRYETNVLNTGRQALAYLEELNRPNLGIHLDTYHMNIEESDMFSPILDTAEALRYVHIGESHRGYLGTGSVDFDTFFKALGRIGYDGPVVFESFSSSVVAPDLSRMLGIWRNLWADNEELGAHANAFIRDKLTAIKTIELH
notes: disrupted with a high-pressure homogenizer to extract the enzyme; made in house; host or cells: Arthrobacter globiformis M30 (native producer); Purified by PEG fractionation, Q-Sepharose ion exchange and RESOURCE PHE hydrophobic chromatography
- Km [2]: 31.5 mM
- Vmax [2]: 68.5 U/mg
- Km [3]: 30.1 mM
- Vmax [3]: 168 U/mg
